Paper PMC4141209

Biological target: TlLhpI (OCD-like protein / Δ1-pyrroline-2-carboxylate reductase from Thermococcus litoralis DSM 5473) (Thermococcus litoralis DSM 5473)
Test: SEC

stoichiometry N: 2
Substance: TlLhpI (OCD-like protein / Δ1-pyrroline-2-carboxylate reductase from Thermococcus litoralis DSM 5473) (enzyme)
